Our source for the other: SUMOylated/non-SUMOylated values is publication PMC8445599.

This assay addresses FLAG-RepoMan-Ubc9. Description: co-immunoprecipitation (IP anti-HA, immunoblot anti-FLAG, quantified with ImageJ). To be noted: 293FT cells; lane 18; with CFP-SUMO2(R59E); ratio of SUMOylated to non-SUMOylated FLAG-RepoMan(WT)-Ubc9 co-precipitated with HA-lamin A; input ratio 0.99 (lane …). For orientation: In western blotting, separated proteins are transferred to a membrane and probed.

In the case of “HA–lamin A (WT) (from UniProt P02545) V494E; V495E”, the other: SUMOylated/non-SUMOylated was found to be 0.31.
